T1: SH3 domain-containing YSC84-like 1 (SH3YL1), antigen of the antibodies (UniProt Q96HL8 1-342)
T1 chain: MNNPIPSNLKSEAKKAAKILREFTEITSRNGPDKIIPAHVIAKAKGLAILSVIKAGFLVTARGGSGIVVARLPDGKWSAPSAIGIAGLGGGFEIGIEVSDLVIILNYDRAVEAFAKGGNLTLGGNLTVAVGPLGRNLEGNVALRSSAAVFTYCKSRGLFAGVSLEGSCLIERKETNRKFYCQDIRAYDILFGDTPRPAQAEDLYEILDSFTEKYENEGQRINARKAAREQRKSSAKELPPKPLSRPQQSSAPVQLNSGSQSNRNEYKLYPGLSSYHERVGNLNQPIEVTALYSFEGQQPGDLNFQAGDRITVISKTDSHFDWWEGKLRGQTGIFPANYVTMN


Target: T1, SH3 domain-containing YSC84-like 1 …

Binder	Kd [nM]
3E11 antibody (antibody, V domains shown) VH: not shown VL: DIQMTQSPSSLSASVGDRVTITCRASQDIANYLNWYQQKPGKAPKLLIYATSTLQSGVPSRFSGSGSGTDFTLTISSLQPEDFATYYCQQSYSSPWTFGQGTKVEIKR	3.56
4F9 antibody (antibody, V domains shown) VH: EVQLVESGGGLVQPGGSLRLSCAASGFTFSDYAMSWVRQAPGKGLEWVSAIKSSGSSTYYADSVKGRFTISRDNSKNTLYLQMNSLRAEDTAVYYCAKAEYEYLAFDIWGQGTLVTVSS VL: DIQMTQSPSSLSASVGDRVTITCRASQDISSWLNWYQQKPGKAPKLLIYATSTLQSGVPSRFSGSGSGTDFTLTISSLQPEDFATYYCQQSYSSPWTFGQGTKVEIKR	3.63
4H7 antibody (antibody, V domains shown) VH: EVQLVESGGGLVQPGGSLRLSCAASGFTFSTYGMSWVRQAPGKGLEWVSAISSSGGSIYYADSVKGRFTISRDNSKNTLYLQMNSLRAEDTAVYYCAKVSYPGLAFDIWGQGTLVTVSS VL: DIQMTQSPSSLSASVGDRVTITCRASQTISNYLNWYQQKPGKAPKLLIYATSSLQSGVPSRFSGSGSGTDFTLTISSLQPEDFATYYCQQSYSSPWTFGQGTKVEIKR	3.43
5D5 antibody (antibody, V domains shown) VH: EVQLVESGGGLVQPGGSLRLSCAASGFTFSDYAMSWVRQAPGKGLEWVSSISSTGSTTYYADSVKGRFTISRDNSKNTLYLQMNSLRAEDTAVYYCAKVLYEYLYFDYWGQGTLVTVSS VL: DIQMTQSPSSLSASVGDRVTITCRASQDIRNWLNWYQQKPGKAPKLLIYAASSLQSGVPSRFSGSGSGTDFTLTISSLQPEDFATYYCQQSYSSPWTFGQGTKVEIKR	5.49

Now those with a lower Kd, led by results:

Kd [nM]	Binder
2.06	S4A antibody (antibody, V domains shown) VH: EVQLLESGGGLVQPGGSLRLSCAASGFTFSSYSMNWVRQAPGKGLEWVSWISPNSGSTDYAQKFQGRFTISRDNSKNTLYLQMNSLRAEDTAVYYCARTPPGTPFDYWGQGTLVTVSS VL: QSVLTQPPSASGTPGQRVTISCSGNNIGSKSVHWYQQLPGTAPRLLIYSTSNKHSGVPDRFSGSKSGTSASLAISGLHSEDEADYYCSSYTSSGTRVFGGGTKLTVLG
0.404	4F10 antibody (antibody, V domains shown) VH: EVQLVESGGGLVQPGGSLRLSCAASGFTFSDYAMSWVRQAPGKGLEWVSAIYSTGSSTYYADSVKGRFTISRDNSKNTLYLQMNSLRAEDTAVYYCAKVGWYLFDYWGQGTLVTVSS VL: DIQMTQSPSSLSASVGDRVTITCRASQSISRYLNWYQQKPGKAPKLLIYATSRLQSGVPSRFSGSGSGTDFTLTISSLQPEDFATYYCQQSYSSPWTFGQGTKVEIKR
2.96	4G4 antibody (antibody, V domains shown) VH: not shown VL: DIQMTQSPSSLSASVGDRVTITCRASQSISNWLNWYQQKPGKAPKLLIYAASRLQSGVPSRFSGSGSGTDFTLTISSLQPEDFATYYCQQSYSSPWTFGQGTKVEIKR

— US20260109755A1 (published 2026)
